According to paper PMC2789969 (Archives of biochemistry and biophysics, 2009):
Read-outs that look alike come from different tables or passages of the source.

B1: R369A EGK (enzyme, Escherichia coli, UniProt P0A6F3 1-502, looked up)
chain: MTEKKYIVALDQGTTSSRAVVMDHDANIISVSQREFEQIYPKPGWVEHDPMEIWATQSSTLVEVLAKADISSDQIAAIGITNQRETTIVWEKETGKPIYNAIVWQCRRTAEICEHLKRDGLEDYIRSNTGLVIDPYFSGTKVKWILDHVEGSRERARRGELLFGTVDTWLIWKMTQGRVHVTDYTNASRTMLFNIHTLDWDDKMLEVLDIPREMLPEVRRSSEVYGQTNIGGKGGTRIPISGIAGDQQAALFGQLCVKEGMAKNTYGTGCFMLMNTGEKAVKSENGLLTTIACGPTGEVNYALEGAVFMAGASIQWLRDEMKLINDAYDSEYFATKVQNTNGVYVVPAFTGLGAPYWDPYARGAIFGLTAGVNANHIIRATLESIAYQTRDVLEAMQADSGIRLHALRVDGGAVANNFLMQFQSDILGTRVERPEVREVTALGAAYLAGLAVGFWQNLDELQEKAVIEREFRPGIETTERNYRYAGWKKAVKRAMAWEEHDE
B2: A65T EGK (enzyme, Escherichia coli, UniProt P0A6F3 1-502, looked up)
chain: MTEKKYIVALDQGTTSSRAVVMDHDANIISVSQREFEQIYPKPGWVEHDPMEIWATQSSTLVEVLTKADISSDQIAAIGITNQRETTIVWEKETGKPIYNAIVWQCRRTAEICEHLKRDGLEDYIRSNTGLVIDPYFSGTKVKWILDHVEGSRERARRGELLFGTVDTWLIWKMTQGRVHVTDYTNASRTMLFNIHTLDWDDKMLEVLDIPREMLPEVRRSSEVYGQTNIGGKGGTRIPISGIAGDQQAALFGQLCVKEGMAKNTYGTGCFMLMNTGEKAVKSENGLLTTIACGPTGEVNYALEGAVFMAGASIQWLRDEMKLINDAYDSEYFATKVQNTNGVYVVPAFTGLGAPYWDPYARGAIFGLTRGVNANHIIRATLESIAYQTRDVLEAMQADSGIRLHALRVDGGAVANNFLMQFQSDILGTRVERPEVREVTALGAAYLAGLAVGFWQNLDELQEKAVIEREFRPGIETTERNYRYAGWKKAVKRAMAWEEHDE

Assays:
[1] = target: the molecule itself; assay: AUC
[2] = target: T1, Escherichia coli glycerol kinase (Escherichia coli, UniProt P0A6F3 1-502); assay: linked-functions initial-velocity enzyme kinetics
[3] = target: B1; assay: linked-functions initial-velocity enzyme kinetics
[4] = target: B2; assay: linked-functions initial-velocity enzyme kinetics
[5] = target: T1, Escherichia coli glycerol kinase; assay: linked-functions initial-velocity enzyme kinetics; remark: listed apart in the source
[6] = target: B1; assay: linked-functions initial-velocity enzyme kinetics; remark: listed apart in the source
[7] = target: B2; assay: linked-functions initial-velocity enzyme kinetics; remark: listed apart in the source

With B1 the “stoichiometry N” value [1] was 4.

B2: binds [1].

B3: IIA^Glc, the glucose-specific phosphocarrier protein of the phosphoenolpyruvate:glycose phosphotransferase system (natural protein)
chain: GLFDKLKSLVSDDKKDTGTIEIIAPLSGEIVNIEDVPDVVFAEKIVGDGIAIKPTGNKMVAPVDGTIGKIFETNHAFSIESDSGVELFVHFGIDTVELKGEGFKRIAEEGQRVKVGDTVIEFDLPLLEEKAKSTLTPVVISNMDEIKELIKLSGSVTVGETPVIRIKK
In the case of B3, the Kd [2] is reported as 4.6 µM, the Kd [3] is reported as 1.8 µM and the Kd [4] is reported as 8 µM. For the same binder, the Kd [5] was 7 µM, the Kd [6] was 2 µM and the Kd [7] was 28 µM.
